The numbers were not newly measured in paper PMC7343451, which cites them from elsewhere.

In general, Kd refers to the constant that tells how readily two partners part at equilibrium.

The series deals with SARS-CoV-2 spike RBD (Severe acute respiratory syndrome coronavirus 2) (UniProt P0DTC2).

In the case of “hACE2 peptide 21-43 (from UniProt Q9BYF1)”, the Kd is 47 nM.
